Measured values reported in patent US10654896B2, “FoxP3-binding peptides and uses thereof” (FUNDACIÓN PARA LA INVESTIGACIÓN MÉDICA APLICADA, priority 2016, dated 2020).
Where a SMILES comes first, the peptide text is derived from it. Where no end group is shown, it is not given here. [ ]: non-standard residue; d: D form.

What was measured:
[1] = target: T1, FOXP3/FOXP3 homodimerization (Homo sapiens, UniProt Q9BZS1); assay: FOXP3/FOXP3 homodimerization inhibition (Alphascreen); assay type: biochemical; settings: for Dimerization inhibition % inhibition (100 μM): peptide 100 μM
T1 construct: made in house; host or cells: E. coli BL21 (DE3)
T1 sequence (Q9BZS1 1-431): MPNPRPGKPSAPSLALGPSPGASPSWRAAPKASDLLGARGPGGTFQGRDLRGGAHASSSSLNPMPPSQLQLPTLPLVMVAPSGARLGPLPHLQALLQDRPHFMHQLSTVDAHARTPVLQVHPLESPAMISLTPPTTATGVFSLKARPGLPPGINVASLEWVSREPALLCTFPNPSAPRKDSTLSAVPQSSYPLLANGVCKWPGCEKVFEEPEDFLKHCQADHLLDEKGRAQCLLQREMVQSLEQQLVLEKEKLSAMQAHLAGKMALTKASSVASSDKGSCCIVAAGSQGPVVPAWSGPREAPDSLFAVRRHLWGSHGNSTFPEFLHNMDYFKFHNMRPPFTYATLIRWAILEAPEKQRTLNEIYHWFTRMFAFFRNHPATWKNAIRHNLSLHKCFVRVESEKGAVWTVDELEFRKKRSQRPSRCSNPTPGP
Excerpt: (§1) Plasmid pET20b FOXP3-His was generated to produce the human FOXP3 tagged with 6 histidines at the C terminus of the protein. Briefly, plasmid pDEST15-FOXP3 (provided by Dr. Casal, Madrid, Spain) was used as template to amplify FOXP3 by PCR using the primers Upper FOXP3 Ndel catatgcccaaccccaggc (SEQ ID NO: 55) and Lower FOXP3 […] (SEQ ID NO: 56). The resulting fragment was subcloned in pET20b at Ndel and NotI sites. pET45b His-Runx1 was obtained by PCR of activated human CD4 T cells obtained from healthy volunteers (after the signature of an informed consent) using the primers Upper Runx1 atgcgtatccccgtagatg (SEQ ID NO: 57) and Lower Runx1 […] (SEQ ID NO: 58) and the fragment was cloned in pcDNA3.1. Then, pET45b and pcDNA3.1-Runx1 were digested with BamHI and NotI and ligated to obtain pET45b-Runx1. Plasmids were used to transform BL21 cells (DE3; Novagen, Schwalbach, Germany) for the expression of the recombinant protein. The transformed BL21 cells were grown in LB medium at 37° C. (1 liter of final culture medium) (with ampicilin 0.1 mg/ml). Once the OD of the culture was between 0.5 and 1.0, IPTG (0.4 mM, final concentration) was added. Bacteria were then cultured overnight in agitation and centrifuged for 10 min at 8000 rpm. Cell pellet was then resuspended in 4 ml Tris-HCl 0.1 M and frozen at −80° C. Cell pellet was then thawed and incubated with lisozyme (25 KU) and a protease inhibitor cocktail for 15 min at 30° C. before cell lysis induced with a French-press. The resultant pool was then centrifuged during 20 min at 11.000 rpm). The recombinant protein was purified from the soluble fraction of French-press cell extracts by affinity chromatography (Histrap, Pharmacia) following manufacturer's instructions and using an FPLC platform (AKTA, Pharmacia). Plasmid pDEST15-FOXP3 encoding the fusion protein GST-FOXP3 (GST fused to the isoform A from human FOXP3 gene), was transformed into BL21 cells for the expression of the recombinant protein. GST-FOXP3 protein was purified from the soluble fraction of cell extracts obtained, as described above, by affinity chromatography (GSTrap; Amersham, Piscataway, N.J.) using a fast protein liquid chromatography platform (AKTA; Amersham) following manufacturer's instructions. The eluted proteins were desalted using Hitrap desalting columns (Pharmacia) and analyzed by SDS-PAGE using Coomassie blue (Bio-Safe Coomassie reagent; Bio-Rad, Hercules, Calif.) and by Western blot.
(§2) It has been described that dimerization of FOXP3 is required for its function as a transcriptional regulator. Moreover, interaction between FOXP3 and the transcription factor Runx1, is crucially required for normal hematopoiesis including thymic T-cell development, but also for Treg suppressor activity (Reviewed in Lozano et al, Front Oncol. 2013, 3:294). Both activities are mediated by the intermediate region of Foxp3, which is the area of interaction between P60 and Foxp3. Thus, we studied the effect of P60 and their mutants on the FOXP3/Runx1 heterodimerization, as well as FOXP3/FOXP3 homodimerization by Alphascreen technology according to the manufacturer's instructions (Perkin Elmer, Benelux). AlphaScreen™ is a bead-based technology that is designed to measure the proximity of donor and acceptor beads conjugated to biomolecules of interest.
To measure FOXP3/FOXP3 homodimerization, recombinant Foxp3 was expressed with a Histine tag as disclosed in section (1) above, and captured by Nickel chelate Acceptor beads (Cat. AL108 Perkin Elmer) following manufacturer's instructions. The other version of recombinant FOXP3, expressing a GST tag (prepared as disclosed in section (1) above), was captured by Glutathione Donor beads (Perkin Elmer Cat. 6765300), following manufacturer's instructions. When the two proteins interacted together, the Donor and Acceptor beads come into proximity. Excitation of the Donor beads results in emission of light from the Acceptor beads. […]

human FOXP3 (FOXP3-6His) = target: T2, human FOXP3 (FOXP3-6His) (Homo sapiens, UniProt Q9BZS1); assay: Peptide binding to FOXP3 by surface plasmon resonance (SPR); settings: peptides 1-20 μM; ratio to p60 (SEQ ID NO: 1)
T2 construct: 6xHis (C); made in house; host or cells: E. coli BL21 (DE3)
T2 sequence (Q9BZS1 1-431): T1 sequence (Q9BZS1 1-431)
Excerpt: as §1
Screening of peptide binding to FOXP3 was performed by surface plasmon resonance (SPR) using ProteOn XPR36 (Bio-Rad, Hercules Calif., USA) optical biosensor. Recombinant protein FOXP3-6His was produced and purified from E. coli as disclosed in previous section and was immobilized covalently onto a GLM sensor chip (176-5012, Bio-Rad) using sulfo-NHS and EDC (Bio-Rad) coupling reagents and the manufacturer's instructions. After protein immobilization, chip surface was treated with ethanolamine to deactivate the excess of reactive esters.
Individual solutions of the peptides to be tested (1-20 μM) were injected by triplicate in running buffer (Phosphate buffered saline, 0.005% (v/v) Tween 20, pH 7.4) at a flow of 30 μl/min. The interspot signal (obtained in the chip surface not immobilized with protein) was used as reference. The results are summarized in Table 6 below as the ratio Peptide of the invention/p60.

[2] = target: T3, FOXP3/Runx1 heterodimerization (Homo sapiens, UniProt Q9BZS1); assay: FOXP3/Runx1 heterodimerization inhibition (Alphascreen); assay type: biochemical; settings: for Foxp3-Runx1 Inhibition % inhibition (100 μM): peptide 100 μM
T3 construct: made in house; host or cells: E. coli BL21 (DE3)
T3 sequence (Q9BZS1 1-431): T1 sequence (Q9BZS1 1-431)
Excerpt: as §1, §2
To measure Foxp3-Runx1 interactions, Foxp3-GST and […] proteins were used.
Recombinant Runx1 expressed in E. Coli with a hexa-histidine tag (obtained as disclosed in section (1) above) was captured by nickel chelate acceptor beads following manufacturer's instructions, whereas the recombinant FOXP3 expressed with a GST tag was captured by glutathione donor beads (Perkin Elmer) following manufacturer's instructions. His-tagged Runx1 (46 nM final concentration) was incubated with 100 nM GST-FOXP3 and the peptides to be tested (added at different concentrations from 1 to 100 μM) for 1 h at room temperature. […]

[3] = tested on: murine Treg (CD25+ T cells); assay: In vitro Treg suppression assay ([3H]-thymidine, anti-CD3); assay type: cell-based, BALB/c mice
Description: Spleen was harvested from BALB/c mice (Harlan Laboratories) and homogenized with a 1-ml syringe through a 100-μm cell strainer into a 50-ml conical tube and rinsed two times with PBS (Calcium free) to recover all cells. Cell homogenate was centrifuged at 300×g for 10 min and resuspended homogenate in 1 ml ACK Lysis buffer solution per spleen. Gently swirled for 2 min and then the reaction was quenched by adding 12 ml of PBS.
Cells were centrifuged at 300×g for 10 min and purification of CD25− and CD25+ cells was carried out using magnetic beads (Miltenyi, CD25 microbead kit MOUSE, Ref 130-091-072)), following manufacturer's instructions. After labelling the cells, they were purified using Automacs-Pro device following manufacturer's instructions. Negative fraction corresponded to CD25− cells, which was used as effector Tconv cells. Positive fraction corresponded to CD25+ T cells that was used as Treg cells. Flow cytometry using anti-CD25-APC labeled and anti-CD4-FITC labelled antibodies was used to confirm the purity of isolated cells. Foxp3 expression was analyzed using the anti-Foxp3 staining antibody labelled with APC according to manufacturer's instructions (eBioscience). Purified cells were washed, resuspended in culture medium and diluted in T-cell culture medium (RPMI 1640, supplemented with 10% Fetal bovine serum and antibiotics) at a concentration of 2×10^5/ml (for Tregs) and 2×10^6/ml (for Tconv), for the assay (See below)
The first in vitro assays to measure regulatory T-cell (Treg) function were described by two groups over a decade ago. […] With this knowledge, it was shown that CD4+CD25+ T cells could potently suppress the proliferation of activated CD4+CD25− and CD8+ T cells when the populations were cocultured in vitro. The following protocol describes a basic type of in vitro Treg suppression assay where Treg function is measured in the absence of antigen-presenting cells (APCs). In this protocol, activation is mediated by anti-CD3 antibodies and includes only two cell types, the target Tconv and Tregs. In this protocol, the experiment is setup in a 96-well round-bottom plate in a total volume of 200 μl. All reagents are prepared at four times their desired final concentration and added to assay in 50 μl such that the total volume is 200 μl, thus obtaining the desired final concentration of reactives. Purified Tregs and Tconv prepared as described above were diluted and adjusted in T-cell culture medium to 2×10^5/ml and 2×10^6/ml, respectively. In round-bottom 96-well plate, Tregs and Tconv were added in 50 μl of culture media each (RPMI 1640, supplemented with 10% Fetal bovine serum, and antibiotics). Anti-CD3 antibody was added in 50 μl (final concentration will be 2.5 μg/ml) as a stimulus to induce T cell proliferation. 50 μL of each one of the peptides to be tested were added in the corresponding wells at a concentration of 100 μM and those which provided the best results were tested again at lower concentrations to determine the IC50 value. The final volume was 200 μl in all wells. Tconv alone, Tconv plus anti-CD3, Tconv+anti-CD3+ Treg or Tconv+anti-CD3+Treg+peptides were tested by quadruplicate. Tconv plus anti-CD3 with no Treg was used to determine maximum proliferation of Tconv whereas Tconv+anti-CD3+ Treg was used to determine Treg inhibition. Plates were incubated at 37° C., 5% CO2 for 72 h and then pulsed with 0.1 μCi [^3H]-thymidine (in 25 μl of culture medium per well). After 8 h of incubation, cell cultures were harvested with a cell harvester (Perkin Elmer) and using unifilter plates. Plates were then dried at 50° C., and scintillation reagent (25 μl)(Microscint, Perkin Elmer) was added to each well. Counts per minute (cpm) were determined with a direct beta counter (TopCount, Perkin Elmer).
The results of in vitro Treg suppression assays are most commonly reported as cpm when [^3H]-thymidine is incorporated into proliferating cells. […]

CT26 tumor cells = assay: Anti-tumor vaccination experiment (AH1 in IFA), CT26 challenge; assay type: in vivo, BALB/c; settings: 10 nanomol/mice i.p. daily during 10 days after AH1/IFA; day 30 after injection of CT26
Description: For anti-tumor vaccination experiments, BALB/c animals immunized with 50 nanomol/mice of peptide AH1 emulsified in incomplete Freund adjuvant (IFA) (Casares et al., 2010, supra), were treated intraperitoneally with 10 nanomol/mice of the indicated Treg inhibitory peptide SEQ ID NO: 51 of the invention or with saline daily during 10 days. At day 10, mice were injected s.c. with 10^6 CT26 tumor cells. Tumor size was monitored twice a week with a calliper and it was expressed according to the formula V=(length×width2)/2. Mice were sacrificed when tumor size reached a volume greater than 4 cm^3.

Compound | Binding to Foxp3 Ratio binding Peptide/p60 (fold change) (human FOXP3 (FOXP3-6His)) | Foxp3-Runx1 Inhibition % inhibition (100 μM) [2] | Dimerization inhibition % inhibition (100 μM) [1] | also measured
2 (RDFQSFRKMWPFFAM-NH2; not fully specified (N-terminus)) [compound 2] | 2.4 fold change | – | – | Dimerization inhibition % inhibition (20 μM) ([1]; peptide 20 μM): 80 (20 μM) %
5 (RAFQSFRKMWPFFAM) [compound 5] | 4.1 fold change | 76.0% | 74.3% | –
9 (RWFQSFRKMWPFFAM) [compound 9] | 1.4 fold change | – | – | Treg inhibition - % inhibition (100 μM) ([3]; peptide 100 μM): 210.0%
CSCC[C@H](NC(=O)[C@H](C)NC(=O)[C@H](Cc1ccccc1)NC(=O)[C@H](Cc1ccccc1)NC(=O)[C@@H]1CCCN1C(=O)[C@H](Cc1c[nH]c2ccccc12)NC(=O)[C@H](CCSC)NC(=O)[C@H](CCCCN)NC(=O)[C@H](CCCNC(=N)N)NC(=O)[C@H](Cc1ccccc1)NC(=O)[C@H](CO)NC(=O)[C@H](CCC(N)=O)NC(=O)[C@H](Cc1ccccc1)NC(=O)[C@@H](C)NC(=O)[C@H](CCCNC(=N)N)NC(=O)CNC(C)=O)C(N)=O [compound 14] (Ac-GR[dA]FQSFRKMWPFFAM-NH2; C-terminus assumed) | 3.6 fold change | – | – | inhibition at 2.5 µM ([2]; read-out: Foxp3-Runx1 Inhibition % inhibition (2.5 μM)): 80%; inhibition at 20 µM ([1]; read-out: Dimerization inhibition % inhibition (20 μM)): 90%
RAFQAFRKMWPFFAM (cyclo(R[dA]FQAFRKMWPFFAM); also: R1 and R2 form a birradical linker which is -C(=O)-) [SEQ ID NO: 51, head-to-tail cyclic peptide] | – | – | – | effect on growth of CT26 colon cancer tumor (CT26 tumor cells): prevents the growth of tumor

Second part, led by results:

Binding to Foxp3 Ratio binding Peptide/p60 (fold change) (human FOXP3 (FOXP3-6His)) | Foxp3-Runx1 Inhibition % inhibition (100 μM) [2] | Dimerization inhibition % inhibition (100 μM) [1] | Compound | also measured
1.1 fold change | 74.7% | 89.0% | 19 (RDFQAFRKMWPFFAM) [compound 19] | –
1.1 fold change | 73.9% | 81.3% | 30 (RDFQSFRKMWAFFAM) [compound 30] | –
8.0 fold change | – | – | Ac-GRAFQAFRKMWAFFAM-NH2 (C-terminus assumed) [compound 45] | IC50 [3]: 3000 nM
